This note sets out measurements from the domain aggregation screens of Martell et al. (2025).

The data set in a line: soluble fraction after stress (log2 fold change); higher = more stays soluble; pooled small domains, quantitative proteomics. The following applies: stress: 75 degC.
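Further: 20 min heating vs room temperature control held 20 min.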

As for “HMAMTITKIEKTSQQKIYYFTDSGRVFKKMSDRSATIAVDDRVELEGGVLGSKFFVTANGSRVKVKEV”, the “soluble fraction (log2)” value is -2.9. With “HMAMYSREKLKKLREDRGLTQYELAKIAGISVVTLNKIESSDSAKPFVKTLNKIAQALGVGIDELS” the figure was -1.77. As to “HMAMYYVIGGDGQQYGPIDEATVRGWLGEGRVSAASLSFKTGEAQWIPLRDRPELADVLATA”, the “soluble fraction (log2)” value was -0.137. Regarding “HMANKLSEQIYGSILKDIVNGVYAPREFISEAQIAAKYGVSKAPVKEAMHILASEGFLLSYPKRGYMVN”, the “soluble fraction (log2)” value is -0.889.

On to “HMANKQLQEKLKNYISENGSLSSAAKAIGLSPATLSTYLKDKYEGNVANVETRLTEIFETVEAANNLL”, for which the “soluble fraction (log2)” value was -0.353.

Turning to “HMANKTISMTTLKLVIQQLSKGISRQSISAQYHISRNTIKKYEKRIKAMDMKIEDILKLSDEEISNLLQ”, the “soluble fraction (log2)” value was -3. With “HMANLNFDMSQIVASRYQEKAAELGVTAPSLARTDYNTQEQATYEFVAREIIADYYDDRVAPFNDLIPE” the figure was -0.191.

As to “HMANNPISMIKIRQILRLHIQGRSKLQIAAQTGISRNTLKKYLKEFEASKLTYDEISELSDKDLEDLFIK”, the “soluble fraction (log2)” value is -2.86. The value for “HMANTSAVIKQPGLVKLFAQHFVRNGFNAMKAAEAAGFVRPSPTFVRNLADSKPVKDAISELLGPYNDA” was -0.183; that for “HMANWRVGQTINALVSDRMPSGGLLLTVGRQSFVTTRDIPVQPGARIMLEVQQVEPKLVLRLVSA” was -1.8.

Turning to “HMAPADLSPEERVVLDALALEPVHVDALAAKLGRRSEELLTSLTLMEMRGLAVAHAGSRYSRATMT”, the “soluble fraction (log2)” value was -0.14. As to “HMAPEEIPLDRVVRLVEQGRVESIVVTGERLEVTLQNGTVYGSTKENGVGFMETLDRYQVPLEQRDFSYEV”, the “soluble fraction (log2)” value was -0.148. With “HMAPELRSDAQMRRLWALAKENGLDEVGFRAFISDATGREVESTKSLTATEAHRLIEELEAP” the figure was -0.0689. Consider “HMAPEPFIVQITASSLNVRKGPGTSYAVAQTVSKGQVFTIVQQQGGWGKLKSGAGWISLKYTAR”, for which the “soluble fraction (log2)” value is -1.74. With “HMAPEQWYVLTSGQLPKGPYRLRHIVAMSKGDNWLVARKGAEQWTPLRHLPEFRQAQEANEYIQAIS” the figure was -1.48. “HMAPFSGVEPREWDSLVERGRQSGEVHAEDVTHVLRHVELTGDVLTDVQSKMAEHGITIDDA”: the “soluble fraction (log2)” value worked out at 0.161. The value for “HMAPGASEVPDLTSLPAREALLRLTKLGLLPEMEGTGRLVRQQPAAGTRVPKGSKVHLVFEPG” was 0.123; that for “HMAPIEVPYNVFRQQVVEGNVESVATRADTVQGYFETPVTLPARPDAAAAEPVTVERFSTTLPSF” was 0.27. The value for “HMAPKRIVLRFGKDISDKPIIYYLVKDYDLVINILKANVNPNKEGTLVLELSGENYDKGIEFLISQGVTVQ” was -1.8. With “HMAPKVHLLKVPVDKIREIIGTGGKVIRQITEETGAKIDISDDGSVKVSSPDQSSIDAATTWITGIIAE” the figure was -0.0092.

On to “HMAPLATLEAGEDGSVKLPNLAGHSIREVAAALGGAKLSLIPIGSGTSWKQTPAPGAVLHSGDTVTVYF”, for which the “soluble fraction (log2)” value turned out to be 0.243. The value for “HMAPNDELTRQVISVLSGTPQQAFNYKQISKKLNINDSSERRMVSNILRELAGKGEIVEVYQGKYRSKAPA” was -0.0901. With “HMAPPTAEFFAHLPAEALSAVRRSVEEGNARGIDEAILRVETLDGEAGRVLRGLAARYEYGRILELTQR” the figure was 0.103. The value for “HMAPQSAAAILRYLSSGAIRGVGPATAQRIVERFGTDSLEIIQNRPKELAAINGISINKALSISEEYAKQY” was -0.741; that for “HMAPREELIAIHEALDKLEREDPQVSQLVKLRYFVGMTMAEAADAMDLKKRAAEALWTYGKAWLHREIKKN” was -3.24. In the case of “HMAPRIVTIQIPVDKIRDVIGPGGKVIRSIIERTGVKIDVEDDGRVNVASADGDSAQRAIAIIQELTAT”, the “soluble fraction (log2)” value is -0.101. The value for “HMAPSIPSGADIRAAREAAGINLRDFARIVDGPGIAIWSRYETGTPIRVKSISPEVWQKVRDFISQHG” was -0.801; that for “HMAPTADSVPFVIRSVVGGAQPFIVLEDGSKLLVGGVYRKYRLVAVENTRIIFEGPRTAIVT” was -1.51; that for “HMAPTPAGNLRSLKSEIVNYTRQSSTAYVYTFKDLSSGELYTARASRYYAAAGDTAYISTAAGAITDM” was 0.121. As to “HMAPTVPEVVRLEEGAARSAIEAAGLSVGSVEFRASSDPAGTVLATRPIAGRKVRPSSAVDLVLSDGRTP”, the “soluble fraction (log2)” value came to 0.166. With “HMAPVEEWAKASVMEDPTLVTETMARIFAQQGQIGKARKAYRHLALTYPAKSTYFAAQLKKLNQR” the figure was -0.473; with “HMAPVLTATVNTTSGKLNMRAAASATSAKLTSIPRGATVTVLEKGTTWSRISYGGYTGYVMTQYLKFD”, -0.523; with “HMAPVVELEDVTIVRGKATLLDRVNWVIDETDRWVIVGPNGAGKTTLLQVVSANLHPTSGKAMILDEVL”, 0.176.

In the case of “HMAQILEPSVALKKLLELKQAGFEDETLVGWIRKVEFTRPLTPDDLLEWKGAGISQAVIRAAM”, the “soluble fraction (log2)” value is -0.302. With “HMAQISDEGLLRGLIVEMFEANPAVVEELLGGRDRKKGFVIGQIMKKTKGMANPALLDQLFYEELEKL” the figure was -1.1; with “HMAQTEIPYSEFLREVGNGQIKSVIIEGSEITGFYKTSGTSFNVVAPDDPKLVERLMDQGVEVRAQPT”, 0.176.

For the sequence “HMAQVVMPNVVGKTEKDATATLEGKNLKVNVEYNLDATSDDGIVKEQSIKSGENIDEGTEITLKVNKV”, the “soluble fraction (log2)” value was -2.27. The value for “HMAQWGFNGSEAGDLSFQQGDVIEVVEKVKDDWWRGRVLGSTEIGLFPS” was -0.309; that for “HMARDDVIRLVQLSLDHLPAKYADALEWKYVEGLSTKEIAARLELGSEAAESLLARARRAFKNDFQEIFES” was -1.42.

As for “HMAREFPGTIIKRGSRGPDVRWIQQHIGVKLVDGVFGRGTERAVKQFQSRRRLKADGIVGRQTWAAIHN”, the “soluble fraction (log2)” value was -1.16. As for “HMARGATELPYSQLLDRVEAGEITTATTQGNTLLSTARDGKRYITYLPLDTMDEVVPRLDAANVEVKTER”, the “soluble fraction (log2)” value is 0.103.

“HMARGLRPVPSVFGLDVRQATRTLYAAGFQVSIARGSDVRTRPAAGTLLRVGSTVQLEMPRMESA”: the “soluble fraction (log2)” value is -2.2.

Consider “HMARGTRTRAKLLAAAEVVFARYGYTEASIERITEEAGVGQGTFYLYFASKLEIFEELVDDLNR”, for which the “soluble fraction (log2)” value is -2.88.

As to “HMARLEELSNGSIVEGLLSGEAVTVVSTKWYGSSSMEVFYKTNRGSTGSQILYREDEPSLTVLEKS”, the “soluble fraction (log2)” value is -0.831. The value for “HMARPLHVDALIHLGTEIGSRVGGAHAGPHLLVAGHSPMSELVYARLLGIPTLGWMRGQLTFVNLSK” was 0.0485. Regarding “HMARSKSRQSSVLESVPGLGPSRRRNLLRHFGGLQGVVKAGVEDLMAVRGISRTLAETVYDHLHPGS”, the “soluble fraction (log2)” value was -0.735.

For the sequence “HMARTIINLPLRNSVDESYNTTVNILQANGFKEVSYNGETVWKKGTGLLTAMQYIKIEFTDTTLVVSGWVQ”, the “soluble fraction (log2)” value was at least 1.04. With “HMARTLSVTVSENYANMRLDSFLFESGLYPSRSKAVKQIESGKVFVNGNEPTKKTIVVANDFIVYEEYAEE” the figure was -2.63. The value for “HMARTTIATPWDKINDLLQGGLGNGDFGLIFGNPGGGKSWSLVALGGFAVKLGYNVIHYTLE” was -0.0148; that for “HMASAEDDLTRRARKLLTTSSMLKTLQPDTGERLQWLPQVVRLLAEGVEAPRIVVLIRRAMESG” was -1.26; that for “HMASALDFGRYVRSQYSLQEFPLILIAPLNDPHPKEVVRELFNLYLTKPITRSRLFDSLMTVLG” was -0.74. The value for “HMASDQGAGALREVSAFFEKHGRVPDPDAVDHDEMRLGSIWASIKSAPTDQMRLEDRFGLLD” was 0.135. As to “HMASDYYTTTANLNLRSGAGTTYGSLIIIEKGDTVKLLENVNDHWVKIQYDDKIGYVAMSYLLPIE”, the “soluble fraction (log2)” value is -1.31. The value for “HMASEKSEQLYQQMKLDIAGMPPDTRLPSIRALMRSYSVSQLLIDRTLGRLREEGALRKRFDGLYTYL” was -2.42; that for “HMASELQQVQALLESQRYNEALILIETTIGKGASESTELLFARADVFASSGRHDEAEQAYREL” was -0.145.

Consider “HMASELVSADEKYSGLVSYLLGRVVVVDQIDHAIALAKKYRYSLRIVTLDGELLSPGGSMTGGAFKNS”, for which the “soluble fraction (log2)” value came out at 0.169. The value for “HMASEVEVPNVYGMPSSLAERELSAVGLLADYRSRTGTGQQPGTVVHVKPDAGTVVSRGSTVVLFIA” was -0.334; that for “HMASFASRAEEVMTKLLANGQPRIKEVADAMHLSSRTLQRRLEREGVSFAELLDRLRKRLAHDMLAHS” was -1.51. With “HMASFGDLSGLKRTYPPQGLPDASRIADFLIARNEGDLSVEQVKALERFLFEHPDHERTARLVAATRVPA” the figure was -0.0446. The value for “HMASFTDAQALEVKDLYPDWSKIPEGTHLEAGQRVRYNGNLYKVRTGQAHDKQSTWTPTDAASLFEAID” was 0.185; that for “HMASIEPLKTSIRIIWYINGEKDSETLLNTPPTAANKANAQKIADMVEQQIQMGIFNRDAVFPSSPKRQ” was -1.75; that for “HMASIGVGTIVRVANAVNYNGVKVKAWFNDEGYEVTELSGDRAVLKHNGDLFDAFHVSDLEA” was -1.42. On to “HMASINRIENKNGKVVYRIIVSLGYDKQGKKLKKTITYNVNQTATKKQQENEALKYALDIEDKIKNGHD”, for which the “soluble fraction (log2)” value was -1.99. With “HMASITLDQAKEIALTHAGQTADAVWFEKAEQDYDDGILVYELEFAAKGTEYEYEIDAQTGAIREYKWDD” the figure was 0.238. The value for “HMASLSEREHDVAVLILQGKTYAEIGQAIFISPRTVEHHVASIRRRLEAKSRSDLIAKLRLTIGGTED” was -2.68; that for “HMASPTKQLVLEALRASGQPMSSMELSAQIGVSRATAQRYLSTLASAGEVKIQLRYGTTGRPEQEFLAIE” was -1.64. With “HMASQFSLIVTQADAGMRLDSLLAVSGAYPSRSAAVKQIEAGKVLVNGLARSKRSIVAPGDTIVYEEIP” the figure was -0.981; with “HMASQVERGAVVVTDQRIFFIGVSSEGIEVHGTKIFGMSEKAPLYSHMKGLKKGDSFQFNGLKYVIQDIY”, -3.57; with “HMASRKTERINRLIDVLQHATSRVPASVLSKILGIGERSVRNYVSEVNEQGQFRIDSSSGGYRLVA”, -0.492. Turning to “HMASRTLSYSEFMSRVDSGDVTSVTLDGERIIMRTSNNQEFLSIKPEGEDISERLLAKNIEVRAEAQQ”, the “soluble fraction (log2)” value was -0.321.
